Test results taken from patent US20250177432A1, “RNA MOLECULES AND COMPOSITIONS FOR CANCER IMMUNOTHERAPY” (WUHAN HOUXIAN BIOPHARMACEUTICAL CO. LTD., priority 2023, published 2025).
Entries after “also recorded” stand apart in the source; their conditions may differ.

B1: MLKL: mRNA encoding MLKL (mixed lineage kinase domain like pseudokinase) or its four-helix bundle domain (nucleic acid)
chain: AUGGAAAAUUUGAAGCAUAUUAUCACCCUUGGCCAGGUCAUCCACAAACGGUGUGAAGAGAUGAAAUACUGCAAGAAACAGUGCCGGCGCCUGGGCCACCGCGUCCUCGGCCUGAUCAAGCCUCUGGAGAUGCUCCAGGACCAAGGAAAGAGGAGCGUGCCCUCUGAGAAGUUAACCACAGCCAUGAACCGCUUCAAGGCUGCCCUGGAGGAGGCUAAUGGGGAGAUAGAAAAGUUCAGCAAUAGAUCCAAUAUCUGCAGGUUUCUAACAGCAAGCCAGGACAAAAUACUCUUCAAGGACGUGAACAGGAAGCUGAGUGAUGUCUGGAAGGAGCUCUCGCUGUUACUUCAGGUUGAGCAACGCAUGCCUGUUUCACCCAUAAGCCAAGGAGCGUCCUGGGCACAGGAAGAUCAGCAGGAUGCAGACGAAGACAGGCGAGCUUUCCAGAUGCUAAGAAGAGAUAAUGAAAAAAUAGAAGCUUCACUGAGACGAUUAGAAAUCAACAUGAAAGAAAUCAAGGAAACUUUGAGGCAGUAUUUACCACCAAAAUGCAUGCAGGAGAUCCCGCAAGAGCAAAUCAAGGAGAUCAAGAAGGAGCAGCUUUCAGGAUCCCCGUGGAUUCUGCUAAGGGAAAAUGAAGUCAGCACACUUUAUAAAGGAGAAUACCACAGAGCUCCAGUGGCCAUAAAAGUAUUCAAAAAACUCCAGGCUGGCAGCAUUGCAAUAGUGAGGCAGACUUUCAAUAAGGAGAUCAAAACCAUGAAGAAAUUCGAAUCUCCCAACAUCCUGCGUAUAUUUGGGAUUUGCAUUGAUGAAACAGUGACUCCGCCUCAAUUCUCCAUUGUCAUGGAGUACUGUGAACUCGGGACCCUGAGGGAGCUGUUGGAUAGGGAAAAAGACCUCACACUUGGCAAGCGCAUGGUCCUAGUCCUGGGGGCAGCCCGAGGCCUAUACCGGCUACACCAUUCAGAAGCACCUGAACUCCACGGAAAAAUCAGAAGCUCAAACUUCCUGGUAACUCAAGGCUACCAAGUGAAGCUUGCAGGAUUUGAGUUGAGGAAAACACAGACUUCCAUGAGUUUGGGAACUACGAGAGAAAAGACAGACAGAGUCAAAUCUACAGCAUAUCUCUCACCUCAGGAACUGGAAGAUGUAUUUUAUCAAUAUGAUGUAAAGUCUGAAAUAUACAGCUUUGGAAUCGUCCUCUGGGAAAUCGCCACUGGAGAUAUCCCGUUUCAAGGCUGUAAUUCUGAGAAGAUCCGCAAGCUGGUGGCUGUGAAGCGGCAGCAGGAGCCACUGGGUGAAGACUGCCCUUCAGAGCUGCGGGAGAUCAUUGAUGAGUGCCGGGCCCAUGAUCCCUCUGUGCGGCCCUCUGUGGAUGAAAUCUUAAAGAAACUCUCCACCUUUUCUAAGUAG
B2: FADD: mRNA encoding FADD (FAS-associated death domain protein) (nucleic acid)
chain: AUGGACCCGUUCCUGGUGCUGCUGCACUCGGUGUCGUCCAGCCUGUCGAGCAGCGAGCUGACCGAGCUCAAGUUCCUAUGCCUCGGGCGCGUGGGCAAGCGCAAGCUGGAGCGCGUGCAGAGCGGCCUAGACCUCUUCUCCAUGCUGCUGGAGCAGAACGACCUGGAGCCCGGGCACACCGAGCUCCUGCGCGAGCUGCUCGCCUCCCUGCGGCGCCACGACCUGCUGCGGCGCGUCGACGACUUCGAGGCGGGGGCGGCGGCCGGGGCCGCGCCUGGGGAAGAAGACCUGUGUGCAGCAUUUAACGUCAUAUGUGAUAAUGUGGGGAAAGAUUGGAGAAGGCUGGCUCGUCAGCUCAAAGUCUCAGACACCAAGAUCGACAGCAUCGAGGACAGAUACCCCCGCAACCUGACAGAGCGUGUGCGGGAGUCACUGAGAAUCUGGAAGAACACAGAGAAGGAGAACGCAACAGUGGCCCACCUGGUGGGGGCUCUCAGGUCCUGCCAGAUGAACCUGGUGGCUGACCUGGUACAAGAGGUUCAGCAGGCCCGUGACCUCCAGAACAGGAGUGGGGCCAUGUCCCCGAUGUCAUGGAACUCAGACGCAUCUACCUCCGAAGCGUCCUGA
B3: #8: codon-optimized OX40L mRNA, SEQ ID NO:29 (nucleic acid)
chain: AUGGAGAGGGUGCAGCCCCUGGAGGAGAACGUUGGCAACGCCGCGAGGCCCAGGUUCGAGCGCAACAAGCUCCUCCUGGUUGCCAGCGUGAUCCAGGGGCUGGGGCUGCUGUUGUGCUUUACAUACAUUUGUUUGCACUUCAGCGCCCUGCAGGUGUCACACAGGUACCCUCGUAUCCAGAGUAUUAAGGUGCAGUUCACCGAGUACAAGAAGGAGAAGGGCUUCAUCUUGACCUCCCAGAAGGAGGACGAGAUAAUGAAGGUCCAGAACAACUCCGUAAUCAUCAACUGUGACGGAUUUUACCUUAUCAGCUUGAAGGGGUACUUCUCCCAGGAGGUGAACAUCAGCCUCCACUACCAGAAGGACGAGGAGCCCCUUUUCCAGCUGAAGAAGGUGAGAUCCGUCAACAGUCUGAUGGUUGCGAGUCUGACCUACAAGGAUAAGGUGUACCUGAAUGUGACCACCGACAACACCUCUCUCGAUGACUUUCACGUGAACGGGGGCGAGCUGAUUCUGAUCCAUCAGAAUCCCGGCGAGUUCUGCGUUCUGUGA
B4: #10: codon-optimized OX40L mRNA, SEQ ID NO:31 (nucleic acid)
chain: AUGGAGCGGGUCCAGCCCCUGGAGGAGAACGUUGGCAACGCAGCGCGGCCCAGGUUCGAGAGGAACAAGCUGCUGCUGGUUGCCAGCGUGAUCCAGGGGCUGGGCCUGCUCCUGUGCUUCACCUACAUCUGCCUGCACUUCAGCGCACUGCAGGUGAGCCACAGGUAUCCCAGGAUACAGAGCAUCAAGGUGCAGUUCACCGAGUACAAGAAGGAGAAGGGCUUCAUCCUCACUUCCCAGAAGGAGGAUGAGAUCAUGAAGGUGCAGAACAACAGCGUGAUCAUCAACUGUGACGGCUUCUACCUGAUCAGCCUGAAGGGGUACUUCAGCCAGGAGGUGAACAUCAGCCUCCACUACCAGAAGGAUGAGGAGCCCCUGUUUCAGCUGAAGAAGGUGAGGUCCGUCAACAGUCUGAUGGUCGCGUCCUUGACCUACAAGGACAAGGUGUACCUGAACGUGACCACCGACAACACCAGCCUGGACGACUUCCAUGUGAACGGCGGUGAGCUGAUCUUGAUUCACCAGAACCCUGGUGAGUUCUGUGUCCUGUGA

How the values were obtained:
CT26 tumor cells = assay: CT26 tumor model, IL-12/OX40L plus additional agent mRNA (Example 4); assay type: in vivo, mice; settings: 1.5 μg mRNA in total, days 9 and 12; for effect of adding the agent on the efficacy of the IL-12/OX40L combination: added agent fused to OX40L mRNA through IRES
Description: All of these agents were delivered, in various combinations, to the same animal model as used above, as mRNA (1.5 μg in total), on days 9 and 12, post-tumor cell implantation. While IL-12 and OX40L were encoded on different constructs, the added agent (e.g., FADD) was fused to the OX40L mRNA, through an IRES elements.
All the test agents were safe in the animals (FIG. 8).

[1] = Translation of codon optimized OX40L and IL-12 mRNA; assay type: cell-based; settings: FIG. 17
From the text: Further, codon optimization was applied to the sequences of OX40L and IL-12 mRNA.

Molecule | anti-tumor effect of the added agent alone (CT26 tumor cells) | effect of adding the agent on the efficacy of the IL-12/OX40L combination (CT26 tumor cells) | translation level [1]
B1 | did not have observable anti-tumor effects | further increased the efficacy of the IL-12/OX12L combination; also recorded: greater than by GSDMD and TNFR | –
B2 | did not have observable anti-tumor effects | further increased the efficacy of the IL-12/OX12L combination; also recorded: greater than by GSDMD and TNFR | –
B3 | – | – | relatively lower translation level
B4 | – | – | relatively lower translation level
